Assay results from patent publication US20050260177A1.

Tests used:
[1] = biological target: Ra12 protein (Mycobacterium tuberculosis); test: ELISA, Ra12 on plate, serum 1:1000, well 1
[2] = biological target: Ra12 protein (Mycobacterium tuberculosis); test: ELISA, Ra12 on plate, serum 1:256000, well 1
[3] = biological target: Ra12 protein (Mycobacterium tuberculosis); test: ELISA, Ra12 on plate, serum 1:256000, average of 2 wells
[4] = biological target: Ra12 protein (Mycobacterium tuberculosis); test: ELISA, Ra12 on plate, serum 1:32000, well 2
[5] = biological target: Ra12 protein (Mycobacterium tuberculosis); test: ELISA, Ra12 on plate, serum 1:4000, well 2
[6] = biological target: Ra12 protein (Mycobacterium tuberculosis); test: ELISA, Ra12 on plate, serum 1:128000, well 1
[7] = biological target: Ra12 protein (Mycobacterium tuberculosis); test: ELISA, Ra12 on plate, serum 1:1024000, average of 2 wells
[8] = biological target: Ra12 protein (Mycobacterium tuberculosis); test: ELISA, Ra12 on plate, serum 1:512000, average of 2 wells
[9] = biological target: Ra12 protein (Mycobacterium tuberculosis); test: ELISA, Ra12 on plate, serum 1:8000, well 2
[10] = biological target: Ra12 protein (Mycobacterium tuberculosis); test: ELISA, Ra12 on plate, serum 1:2000, well 2
[11] = biological target: Ra12 protein (Mycobacterium tuberculosis); test: ELISA, Ra12 on plate, serum 1:512000, well 2
[12] = biological target: Ra12 protein (Mycobacterium tuberculosis); test: ELISA, Ra12 on plate, serum 1:4000, average of 2 wells
[13] = biological target: Ra12 protein (Mycobacterium tuberculosis); test: ELISA, Ra12 on plate, serum 1:16000, well 2
[14] = biological target: Ra12 protein (Mycobacterium tuberculosis); test: ELISA, Ra12 on plate, serum 1:64000, well 2
[15] = biological target: Ra12 protein (Mycobacterium tuberculosis); test: ELISA, Ra12 on plate, serum 1:512000, well 1
[16] = biological target: Ra12 protein (Mycobacterium tuberculosis); test: ELISA, Ra12 on plate, serum 1:64000, well 1
[17] = biological target: Ra12 protein (Mycobacterium tuberculosis); test: ELISA, Ra12 on plate, serum 1:8000, well 1
[18] = biological target: Ra12 protein (Mycobacterium tuberculosis); test: ELISA, Ra12 on plate, serum 1:1024000, well 1
[19] = biological target: Ra12 protein (Mycobacterium tuberculosis); test: ELISA, Ra12 on plate, serum 1:128000, average of 2 wells
[20] = biological target: Ra12 protein (Mycobacterium tuberculosis); test: ELISA, Ra12 on plate, serum 1:32000, average of 2 wells
[21] = biological target: Ra12 protein (Mycobacterium tuberculosis); test: ELISA, Ra12 on plate, serum 1:256000, well 2
[22] = biological target: Ra12 protein (Mycobacterium tuberculosis); test: ELISA, Ra12 on plate, serum 1:2000, well 1
[23] = biological target: Ra12 protein (Mycobacterium tuberculosis); test: ELISA, Ra12 on plate, serum 1:1024000, well 2
[24] = biological target: Ra12 protein (Mycobacterium tuberculosis); test: ELISA, Ra12 on plate, serum 1:2000, average of 2 wells
[25] = biological target: Ra12 protein (Mycobacterium tuberculosis); test: ELISA, Ra12 on plate, serum 1:1000, well 2
[26] = biological target: Ra12 protein (Mycobacterium tuberculosis); test: ELISA, Ra12 on plate, serum 1:32000, well 1
[27] = biological target: Ra12 protein (Mycobacterium tuberculosis); test: ELISA, Ra12 on plate, serum 1:8000, average of 2 wells
[28] = biological target: Ra12 protein (Mycobacterium tuberculosis); test: ELISA, Ra12 on plate, serum 1:16000, well 1
[29] = biological target: Ra12 protein (Mycobacterium tuberculosis); test: ELISA, Ra12 on plate, serum 1:16000, average of 2 wells
[30] = biological target: Ra12 protein (Mycobacterium tuberculosis); test: ELISA, Ra12 on plate, serum 1:64000, average of 2 wells
[31] = biological target: Ra12 protein (Mycobacterium tuberculosis); test: ELISA, Ra12 on plate, serum 1:1000, average of 2 wells
[32] = biological target: Ra12 protein (Mycobacterium tuberculosis); test: ELISA, Ra12 on plate, serum 1:4000, well 1
[33] = biological target: Ra12 protein (Mycobacterium tuberculosis); test: ELISA, Ra12 on plate, serum 1:128000, well 2

Work on Preimmune sera (antibody) yielded an ELISA absorbance at 450 nm [1] of 0.18 OD450, an ELISA absorbance at 450 nm [2] of 0.15 OD450 and an ELISA absorbance at 450 nm [3] of 0.15 OD450. For the same substance, the ELISA absorbance at 450 nm [4] was 0.13 OD450, the ELISA absorbance at 450 nm [5] was 0.15 OD450 and the ELISA absorbance at 450 nm [6] was 0.15 OD450. The ELISA absorbance at 450 nm [7] was 0.16 OD450, the ELISA absorbance at 450 nm [8] was 0.16 OD450 and the ELISA absorbance at 450 nm [9] was 0.15 OD450. The ELISA absorbance at 450 nm [10] was 0.17 OD450, the ELISA absorbance at 450 nm [11] was 0.16 OD450 and the ELISA absorbance at 450 nm [12] was 0.15 OD450. For the same substance, the ELISA absorbance at 450 nm [13] was 0.14 OD450, the ELISA absorbance at 450 nm [14] was 0.13 OD450 and the ELISA absorbance at 450 nm [15] was 0.16 OD450. For the same substance, the ELISA absorbance at 450 nm [16] was 0.14 OD450, the ELISA absorbance at 450 nm [17] was 0.15 OD450 and the ELISA absorbance at 450 nm [18] was 0.16 OD450. For the same substance, the ELISA absorbance at 450 nm [19] was 0.14 OD450, the ELISA absorbance at 450 nm [20] was 0.14 OD450 and the ELISA absorbance at 450 nm [21] was 0.15 OD450. For the same substance, the ELISA absorbance at 450 nm [22] was 0.15 OD450, the ELISA absorbance at 450 nm [23] was 0.16 OD450 and the ELISA absorbance at 450 nm [24] was 0.16 OD450. For the same substance, the ELISA absorbance at 450 nm [25] was 0.18 OD450, the ELISA absorbance at 450 nm [26] was 0.14 OD450 and the ELISA absorbance at 450 nm [27] was 0.15 OD450. For the same substance, the ELISA absorbance at 450 nm [28] was 0.15 OD450, the ELISA absorbance at 450 nm [29] was 0.15 OD450 and the ELISA absorbance at 450 nm [30] was 0.13 OD450. The ELISA absorbance at 450 nm [31] was 0.18 OD450, the ELISA absorbance at 450 nm [32] was 0.15 OD450 and the ELISA absorbance at 450 nm [33] was 0.14 OD450.
